Here are results for 18 molecules from US20250314655A1 (AUTOLUS, published 2025).

To fix the notation:
T1: TRBC2 peptide (biotinylated) (human, also: biotinylated (site not given here))
T1 construct: In the monoclonal screen: biotinylated, 0.5 ug/ml on neutravidin-coated plates; In the polyclonal phage ELISA also presented as BSA or OA conjugate of the C-terminal-cysteine form; also called Bio-TRBC2; biotinylated TRBC2
T1 peptide: VLEDLKNVFPPEVAV

T2: TRBC1 peptide (biotinylated) (human, also: biotinylated (site not given here))
T2 construct: In the monoclonal screen: biotinylated, 0.5 ug/ml on neutravidin-coated plates; In the polyclonal phage ELISA also presented as BSA or OA conjugate of the C-terminal-cysteine form; also called Bio-TRBC1; biotinylated TRBC1
T2 peptide: VLEDLNKVFPPEVAV

B1: CP_03_H06 (scFv, not shown: small tags and cut ends)
scFv: QVQLVESGGGLVKPGGSLRLSCAASGFTFSDYYMSWIRQAPGKGLEWVSYISSSGSTIYYADSVEGRFTISRDNAKNSLYLQMNSLRTEDTAVYYCARARVGGMDVWGQGTMVTVSSGGGGSGGGGSGGGASNFMLTQPHSVSESPGKTVTISCTRSSGSIASNYVQWYQQRPGSSPTTVIYEDNQRPSGVPDRFSGSIDSSSNSASLTISGLKTEDEADYYCQSFDADNLHVVFGGGTKLTVLGQPAA
notes: scFv from pSANG10-3F (His6, tri-FLAG), culture supernatant
B2: CP_03_F09 (scFv, not shown: small tags and cut ends)
scFv: QMQLVQSGAEVKKPGASVKVSCKASGYTFASYYMHWVRQAPGQGLEWMGIINPSGGSTSYAQKFQGRVTMTRDTSTSTVYMELSRLRSDDTAVYYCASNRGGSYKSVGMDVWGQGTTVTVSSGGGGSGGGGSGGGASNFMLTQPQSVSESPGKTVTISCTRSSGNFASKYVQWYQQRPGSSPTTVIYENYQRPSGVPDRFSGSIDSSSNSATLTISGLKTEDEADYYCQSYDEVSVVFGGGTQLTVLGQPAA
notes: as for B1
B3: CP_03_G09 (scFv, not shown: small tags and cut ends)
scFv: QVQLQQSGPGLVKPSQTLSLTCAISGDSVSSNSAAWNWIRQSPSRGLEWLGRTYYRSKWYNDYAVSVKSRITINPDTSKNQFSLQLNSVTPEDTAVYYCARDQWLANYYYYGMDVWGQGTLVTVSSGGGGSGGGGSGGGASSYELTQPLSVSVALGQTARITCGGNNIGSKNVHWYQQKPGQAPVLVIYRDNNRPSGIPERFSGSNSGNTATLTISKAQAGDEADYYCQVWDSNSWVFGGGTKLTVLGQPAA
notes: as for B1
B4: CP_03_G02 (scFv, not shown: small tags and cut ends)
scFv: EVQLVQSGAEVKKPGSSVKVSCKASGGTFSSYAISWVRQAPGQGLEWMGIINPSGGSTSYAQKFQGRVTMTRDTSTSIVYMELSSLRSEDTAVYYCARGVWNSGSYLGFDYWGQGTLVTVSSGGGGSGGGGSGGGASDIQMTQSPSSLSASVGDRVTITCQASQDISNYLNWYQQKPGKAPKLLIYAASSLQSGVPSRFSGSGSGTDFTLTISSLQPEDFATYYCQQSYSTPLTFGGGTKLEIKRTAAA
notes: as for B1
B5: CP_03_F10 (scFv, not shown: small tags and cut ends)
scFv: EVQLVESGAEVKKPGASVKVSCKASGYTFTGYYMHWVRQAPGQGLEWMGRINPNSGGTNYAQKFQGRVTMTRDTSISTAYMELSSLRSEDTAVYYCARFGERYAFDIWGQGTLVTVSSGGGGSGGGGSGGGASQSELTQPPSASGSPGQSVTISCTGTSTDVGAFHFVSWYQHTPGKAPKLLISEVRKRASGVPDRFSGSRSGNTASLTVSGLQSEDEADYFCSAYTGSNYVFGSGTKLTVLGQPAA
notes: as for B1
B6: CP_03_C12 (scFv, not shown: small tags and cut ends)
scFv: EVQLVQSGAEVKKPGASVKVSCKASGYTFTGYYMHWVRQAPGQGLEWMGWINPNSGGTNYAQKFQGRVTMTRDTSISTAYMELSSLRSEDTAVYYCARDTGPIDYWGQGTMVTVSSGGGGSGGGGSGGGASDIVMTQTPLSLSVTPGQPASISCKSSQSLLHSDGKTYLYWYLQKPGQPPQLLVYEVSNRFSGVPDKFSGSGSGTDFTLKISRVEAEDVGVYYCMQGIQLPPTFGGGTKVDIKRTAAA
notes: as for B1
B7: CP_03_E05 (scFv, not shown: small tags and cut ends)
scFv: EVQLVESGGGVVQPGGSLRLSCAASGFTFSSYAMSWVRQAPGKGLEWVSAISGSGGSTYYADSVKGRFSISRDNSKNTLYLQMNSLRAEDTAVYYCARTRSSGAFDIWGQGTLVTVSSGGGGSGGGGSGGGASNFMLTQPHSVSESPGKTVTISCTRSSGSIASKYVQWYQQRPGSSPTTVIYEDNQRPSGVPDRFSGSIDTSSNSASLTISGLRTEDEADYYCHSYDSNNHSVFGGGTKVTVLGQPAA
notes: as for B1
B8: CP_03_D09 (scFv, not shown: small tags and cut ends)
scFv: EVQLVQSGAEVKKPGSSVKVSCEASGYTFTSYAISWVRQAPGQGLEWMGWMNPNSGNTGYAQKFQGRVTMTRNTSISTAYMELSSLRSEDTAVYYCARVSSYYGMDVWGQGTLVTVSSGGGGSGGGGSGGGASNFMLTQPLSVSESPGKTVTISCTRSSGSIASNYVQWYQQRPGSAPTTVIYEDNQRPSGVPDRFSGSIDSSSNSASLTISGLKTEDEADYYCQSYNSSNHWVFGGGTKVTVLGQPAA
notes: as for B1
B9: CP_03_D05 (scFv, not shown: small tags and cut ends)
scFv: QVQLVESGAEVKKPGASVKVSCKASGYTFTGYYMHWVRQAPGQGLEWMGRINPNSGGTNYAQKFQGRVTMTRDTSISTAYMELSRLRSDDTAVYYCASPRGRGSAFDIWGQGTLVTVSSGGGGSGGGGSGGGASSYELTQPPSVSVSPGQTATISCSGDQLGGKYGHWYQKKPGQSPVLVLYQDRKRPAGIPERFSGSSSGNTITLTISGTQAVDEADYYCQAWDTNLGGVFGGGTKVTVLGQPAA
notes: as for B1
B10: CP_03_D04 (scFv, not shown: small tags and cut ends)
scFv: EVQLVESGGGVVQPGRSLRLSCAASGFTFSSYAMHWVRQAPGKGLEWVAVISYDGSNKYYADSVKGRFTISRDNSKNTLYLQMNSLRAEDTAVYYCARGGFTVPGGAFDIWGQGTLVTVSSGGGGSGGGGSGGGASNFMLTQPHSVSDSPGKTVTISCTRSSGRIGSNFVQWYQQRPGSSPTTVIYEDDQRPSGVPARFSGSIDSSSNSASLTISGLTTADEAGYYCQSYDASNVIFGGGTKLTVLGQPAA
notes: as for B1
B11: CP_01_F06 (scFv, not shown: small tags and cut ends)
scFv: EVQLLESGGGVVQPGRSLRLSCAASGFTFSSYGMHWVRQAPGKGLEWVAVISYDGSNKYYADSVKGRFTISRDNSKNTLYLQMNSLRAEDTAVYYCAKDDGAMRYWGQGTMVTVSSGGGGSGGGGSGGGASDIQMTQSPDSLAVSLGERATINCKSSQSVLYSSNNKNYLAWYQQKPGQPPKLLIYWASTRESGVPDRFSGSGSGTDFTLTISSLQAEDVAVYYCQQYYDSPYTFGQGTKVDIKRTAAA
notes: as for B1
B12: CP_01_D03 (scFv, not shown: small tags and cut ends)
scFv: QVQLVESGGGVVQPGRSLRLSCAAPGFTFSSYGMHWVRQAPGKGLEWVAVISYDGSNKYYADSVKGRFTISRDNSKNTLYLQMNSLRAEDTAVYYCARNKQYGMDVWGQGTLVTVSSGGGGSGGGGSGGGASDIVMTQSPATLSLAPGERATLSCRASQSVGSNLAWYQQKPGQAPSLLIYDASTRATGIPARFSGSGSGTDFTLTISSLQSEDIAVYYCQQYHRWPLTFGGGTKVEIKRTAAA
notes: as for B1
B13: CP_01_C11 (scFv, not shown: small tags and cut ends)
scFv: QVQLVESGAEVKKPGASVKVSCKASGYTFTGYYMHWVRQAPGQGLEWMGRINPNSGGTNYAQKFQGRVTMTRDTSISTAYMELSRLRSDDTAVYYCASGGAGWNWGQGTMVTVSSGGGGSGGGGSGGGASNFMLTQPHSVSESPGKTATISCTRSSGSIASNYVQWYQQRPGSAPTTVIYEDNQRPFGVPDRFSGSIDSSSNSASLTISGLKTEDEADYYCQSHDSSNVVFGGGTQLTVLGQPAA
notes: as for B1
B14: CP_01_C08 (scFv, not shown: small tags and cut ends)
scFv: EVQLLESGGGAVQPGRSLRLSCAASGFTFSSYAMHWVRQAPGKGLEWVAVISYDGSNKYYADSVKGRFTISRDNSKNTLYLQMNSLRAEDTAVYYCASGYSSSWYLDYWGQGTLVTVSSGGGGSGGGGSGGGASDIQMTQSPSSVSASVGDRVTITCQASQDISNYLNWYQQKPGKAPKLLIYDASNLETGVPSRFSGSGSGTDFTFTISSLQPEDIATYYCQQYDNLPLTFGGGTKVEIKRTAAA
notes: as for B1
B15: CP_01_D12 (scFv, not shown: small tags and cut ends)
scFv: EVQLLESGGGVVQPGRSLRLSCAASGFTFSSYAMHWVRQAPGKGLEWVAVISYDGSNKYYADSVKGRFTISRDNSKNTLYLQMNSLRAEDTAVYYCAKGGDTYGFLDNWGQGTMVTVSSGGGGSGGGGSGGGASDIQMTQSPSTLSASVGDRVTITCRASQSISSWLAWYQQKPGKAPKLLIYKASSLESGVPSRFSGSGSGTDFTLTISSLQPEDFATYYCQQFNAYPLTFGGGTKVEIKRTAAA
notes: as for B1
B16: CP_01_E07 (scFv, not shown: small tags and cut ends)
scFv: QVQLVESGGGVVQPGRSLRLSCAASGFTFSSYGMHWVRQAPGKGLEWVAVISYDGSNKYYADSVKGRFTISRDNSKNTLYLQMNSLRAEDTAVYYCAKDLGGSGGAFDIWGQGTLVTVSSGGGGSGGGGSGGGASDIVMTQTPHSLSVTPGQPASISCKSSQSLLYSDGKTYLYWYLQKPGQPPQLLIYEVSNRFSGVPDRFSGSGSGTDFTLKISRVEAEDVGVYYCMQSIQLYTFGQGTKVDIKRTAAA
notes: as for B1
B17: CP_01_E09 (scFv, not shown: small tags and cut ends)
scFv: QVQLVESGGGVVQPGRSLRLSCAASGFTFSSYAMHWVRQAPGKGLEWVAVISYDGSNKYYADSVKGRFTISRDNSKNTLYLQMNSLRAEDTAVYYCARAHNSSSWSFDYWGQGTLVTVSSGGGGSGGGGSGGGASDIQMTQSPSSLSASVGDRVTITCRASQSISSYLNWYQQKPGKAPKLLIYDASNLETGVPSRFSGSGSGTDFTFTISSLQPEDIATYYCQQYDNLPLTFGGGTKVDIKRTAAA
notes: as for B1
B18: CP_01_D10 (scFv, not shown: small tags and cut ends)
scFv: QVQLVESGGGLVQPGRSLRLSCAASGFTFSSYAMHWVRQAPGKGLEWVAVISYDGSSKYYADSVKGRFTISRDNSKNTLYLQMNSLRAEDTAVYYCAKGGGSFGAFDIWGQGTLVTVSSGGGGSGGGGSGGGASDIQMTQSPSSLSASVGDRVTITCRASQSISRYLNWYQQKPGKAPNLLIYAASSLQSGVPSRFSGSGSGTDFTLTISSLQPEDFATYYCQQYNSYPLTFGGGTKLEIKRTAAA
notes: as for B1

No end group written: not given here.

The first assay addresses T1, TRBC2 peptide (biotinylated). Briefly: TRF assay, scFv on biotin-peptide/neutravidin plate. As to the method:
(§1) The scFv populations from round-2 and round-3 selection outputs were sub-cloned into the pSANG10-3F expression vector and transformed into E. coli BL21 (DE3) cells. 1128 individual transformants (564 clones/TRBC peptide) were picked into 12×96 well culture plates (94 clones/plate) and antibody expression was induced using autoinduction media. Recombinant monoclonal antibodies secreted into culture supernatant after overnight induction were tested for binding to biotinylated TRBC1 and TRBC2 immobilised on neutravidin coated Nunc Maxisorp™ 96 well plates.
B1: the TRBC2 binding was determined as 168000 TRF units.

Turning to B2, the TRBC2 binding came out at 132000 TRF units.

In turn, B3 registered a TRBC2 binding of 139000 TRF units.

Molecule B4 came in with a TRBC2 binding of 152000 TRF units.

For the molecule B5, the TRBC2 binding worked out at 140000 TRF units.

As for B6, the TRBC2 binding is 167000 TRF units.

B7 yielded a TRBC2 binding of 217000 TRF units.

As to B8, the TRBC2 binding stood at 129000 TRF units.

Molecule B9 registered a TRBC2 binding of 213000 TRF units.

The molecule B10 returned a TRBC2 binding of 143000 TRF units.

The target of the next assay is T2, TRBC1 peptide (biotinylated). The description is as above. As to the method:
as §1
B11 came in with a TRBC1 binding of 325000 TRF units.

For the molecule B12, the TRBC1 binding turned out to be 328000 TRF units.

B13 had a TRBC1 binding of 349000 TRF units.

Regarding B14, the TRBC1 binding came out at 353000 TRF units.

In turn, B15 registered a TRBC1 binding of 393000 TRF units.

The molecule B16 had a TRBC1 binding of 332000 TRF units.

B17 returned a TRBC1 binding of 403000 TRF units.

On to B18, for which the TRBC1 binding was 371000 TRF units.
